From patent US10876130B2, “HPPD variants and methods of use” (Bayer CropScience LP, priority 2014, dated 2020)
“And” between values parts separate entries of the source, which are not always exact repeats. Equal values may be shown once.

B1: PfHPPDEvo40: reference Pseudomonas fluorescens HPPD variant, SEQ ID NO:3 in Table 2 (protein)
chain: MADLYENPMGLMGFEFIEFASPTPGTLEPIFEIMGFTKVATHRSKNVHLYRQGEINLILNNEPNSIASYFAAEHGPSVCGMAFRVKDSQKAYNRALELGAQPIHIDTGPMELNLPAIKGIGGAPLYLIDRFGEGSSIYDIDFVYLEGVERNPVGAGLKVIDHLTHNVYRGRMVYWANFYEKLFNFREARYFDIKGEYTGLTSKAMSAPDGMIRIPLNEESSKGAGQIEEFLMQFNGEGIQHVAFLTDDLVKTWDALKKIGMRFMTAPPDTYYEMLEGRLPDHGEPVDQLQARGILLDGSSVEGDKRLLLQIFSETLMGPVFFEFIQRKGDDGFGPSNFKELFESIERDQVRRGVLTAD
modifications: variant HPPD
B2: PfHPPDEvo41: reference Pseudomonas fluorescens HPPD variant, SEQ ID NO:4 in Table 2 (protein)
chain: MADLYENPMGLMGFEFIEFASPTPGTLEPIFEIMGFTKVATHRSKNVHLYRQGEINLILNNEPNSIASYFAAEHGPSVCGMAFRVKDSQKAYNRALELGAQPIHIDTGPMELNLPAIKGIGGAPLYLIDRFGEGSSIYDIDFVYLEGVERNPVGAGLKVIDHLTHNVYRGRMVYWANFYEKLFNFREARYFDIKGEYTGLTSKAMSAPDGMIRIPLNEESSKGAGQIEEFLMQFNGEGIQHVAFLTDDLVKTWDALKKIGMRFMTAPPDTYYEMLEGRLPDHGEPVDQLQARGILLDGSSVEGDKRLLLQIFSETLMGPVFFEFIQRKGDDGFGPWNFAQLFESIERDQVRRGVLTAD
modifications: variant HPPD
B3: Axmi309H-PWG: Axmi309H protein containing E335P, G336W, and A340G; SEQ ID NO:21 (protein)
chain: MADLYENPMGLMGFEFIEFASPTPGTLEPIFEIMGFTKVATHRSKNVHLYRQGAINLILNNEPHSVASYFAAEHGPSVCGMAFRVKDSQKAYNRALELGAQPIHIETGPMELNLPAIKGIGGAPLYLIDRFGEGSSIYDIDFVFLEGVDRNPVGAGLKIIDHLTHNVYRGRMAYWANFYEKLFNFREIRYFDIKGEYTGLTSKAMTAPDGMIRIPLNEESSKGAGQIEEFLMQFNGEGIQHVAFLTDDLVKTWDQLKKIGMRFMTAPPDTYYEMLEGRLPNHGEPVDQLQSRGILLDGASDKEDKRLLLQIFSETLMGPVFFEFIQRKGDDGFGPWNFKGLFESIERDQVRRGVLATE
modifications: variant HPPD

Legend:
HPPD enzymes [1] = conditions: for 125 μM HPP/500 μM HPP × 100 / 500 μM HPP, 5 μM TBT/500 μM HPP × 100: Table 3; for 125 μM HPP/500 μM HPP × 100: rate at limiting relative to high substrate; for 500 μM HPP, 5 μM TBT/500 μM HPP × 100 / 500 μM HPP + 5 μM TBT (as % of 500 μM HPP, dataset 1): rate with 5 μM tembotrione relative to rate without; for 500 μM HPP, dataset 1: enzymatic rate at high substrate (500 μM HPP), no inhibitor, measure of Vmax, E. coli extract; for 125 μM HPP (as % of 500 μM HPP, dataset 1): rate at limiting substrate relative to high substrate, measure of substrate affinity (Km); for 500 μM HPP + 5 μM TBT (as % of 500 μM HPP, dataset 1): resistance to tembotrione
Experimental: The in vitro kinetic assay couples the production of Homogentisic acid with the enzyme Homogentisate 1,2-dioxygenase (HGO). HGO converts homogentisic acid to maleoacetoacetate, which is easily quantified by UV absorption at 321 nm. The assay is carried out in real-time, and product can be quantified continuously in a 96-well spectrophotometer.
The kinetic assay was performed in two stages.
Experimentally, the first stage enzymatic assays were performed as follows. […] The cultures were incubated at 37 degrees C. When the OD reached 0.6-0.7, the temperature was decreased to 30 degrees C. and the cultures were incubated overnight. Cultures were sampled the next afternoon for the pyomelanin assay and the remaining culture was pelleted at 6500 rpm in an SA600 rotor, the supernatant was removed, and the pellets were frozen overnight at −20 degrees Celsius or until assay.
Just before assay, the pellets were resuspended in 1 ml of buffer (20 mM Hepes pH 7.0, 50 mM NaCl). Two ul of LYSONASE™ (Novagen) was added to each resuspended pellet, and then mixed. Two ml of buffer and 4 ul of LYSONASE™ were then added to the HGO pellet. The suspensions were incubated for 45 minutes at room temperature, and then frozen at −20 degrees for at least 1 hour. Then, the solutions were thawed at room temperature with occasional brief immersion in a 37 degree C. water bath and a little agitation. The cultures were spun down for 15 min at 14000 rpm in a Sorvall SA 600 rotor. The supernatants were carefully pipetted off the pellets (with care not to disturb the pellets), and transferred into 1 column of a 96 well plate, and 0.5 ml of buffer was added to each of the samples and pipetted up and down to mix. The HGO supernatant was collected and the reactions were performed in the following order. The HGO was added to the 500 μM HPP solution and the 500 μM solution+5 μM TBT. Immediately 100 ul of the 500 μM HPP solution was pipetted into even-numbered rows (5 reps) and 100 ul of the 500 μM HPP+5 μM TBT solution was pipetted into odd-numbered rows (5 reps). The reactions were divided between two 96-well plates to allow a sufficient number of samples to be analyzed (4 assays total in one 96-well plate, and 6 in another). Then, 100 ul of the enzyme solutions or buffer was pipetted first into a row of wells containing 500 μM HPP+5 μM TBT followed by gentle mixing by stirring with the pipette tips, and next into a row of wells containing 500 μM HPP followed by gentle mixing by stirring with the pipette tips. Product formation was measured by absorbance at 321 nm at 5 sec intervals. The reduced values (equivalent to the absorbance change over 50 sec, and calculated as OD/min) were analyzed. Five sets of data were collected. This was then repeated after addition of the HGO to the 125 μM HPP, using the same steps as above.
The enzymatic assay for each protein at 500 μM HPP is shown as milliOD units/minute, while the relative activity at 500 μM HPP+5 μM TBT, and also 125 μM HPP, are shown as a percentage of the activity at 500 μM HPP.

Soybean plants = test: tolerance of soybean plants to mesotrione, spray test; assay type: in vivo
Experimental: Soybean plants expressing an HPPD inhibitor tolerant enzyme of the present invention, along with a gene conferring tolerance to glyphosate and a gene conferring tolerance to glufosinate, were tested for tolerance to mesotrione. A DeVries Tracker Sprayer was calibrated prior to each spraying. The chemical formulation used for mesotrione (MST) testing was Callisto® 4 SC formulation. Spray tests were conducted using 3× the field rate (equivalent to 9 fluid ounce per acre of the same herbicide formulation that containing 40% the active ingredient (AI), mesotrione), which equals 316 grams AI per hectare. Tolerance was evaluated one week after spraying. A tolerance rating of “0” was assigned to plants that their shoot apexes, newly emerged trifoliates and some axillary buds were completely bleached. A rating of “1” was assigned to plants having slight tolerance, i.e., the newest plant shoot tissues had some green and are not bleached completely. A rating of “2” was assigned to plants showing moderate tolerance, i.e., more than 50% of the leaf area of the top three trifoliates showing no chlorosis or bleaching damage. A rating of “3” was assigned to plants showing nearly perfect tolerance, i.e., less than 10% of the leaf area showing chlorosis or very slight bleaching.

HPPD enzymes [2] = test: pyomelanin (brown color) colorimetric assay of HPPD enzymes overexpressed in E. coli, with tembotrione; assay type: cell-based; conditions: among Axmi309H mutants
Experimental: A specific, although non-limiting, type of assay that can be used to evaluate the HPPD sequences of the invention is a colorimetric assay. In this assay, a YT-broth-type culture medium with 1% agarose, 5 mM L-Tyrosine and 42 mM Succinate, which contains the selection agent for the vector pSE420 (Invitrogen, Karlsruhe, Germany) or a modified version of pSE420 (pSE420(RI)NX) is poured into deep well plates. E. coli culture in the exponentional growth phase which contains the vector pSE420-HPPDx (HPPDx means any gene coding for a putative HPPD enzyme/protein) is applied to each well.
Enzymes with improved tolerance to TBT were identified by this approach. The three-dimensional structure of Pseudomanas HPPD was studied to identify residues in the active site that were likely to be involved in substrate binding.
Briefly, overexpression of HPPD enzymes (in E. coli) on rich growth medium leads to the production of the compound pyomelanin. Pyomelanin is deep brown in color, therefore, inspection of HPPD enzymes grown on LB agar in a multi-well plate allows visual comparison of the enzymatic activity of HPPD enzymes. This experimental approach also allows varying concentrations of HPPD inhibitors (such as tembotrione) to be added to individual sample wells, which allows visual assessment of the tolerance of HPPD inhibitors by the randomized HPPD enzymes.

Molecule	125 μM HPP/500 μM HPP × 100 (HPPD enzymes [1])	500 μM HPP, 5 μM TBT/500 μM HPP × 100 (HPPD enzymes [1])	500 μM HPP, dataset 1 (HPPD enzymes [1])	125 μM HPP (as % of 500 μM HPP, dataset 1) (HPPD enzymes [1])	500 μM HPP + 5 μM TBT (as % of 500 μM HPP, dataset 1) (HPPD enzymes [1])	number of plants with tolerance rating 1 (Soybean plants; same spray test, 1 = slight tolerance, newest shoot tissues had some green)	number of plants with tolerance rating 2 (Soybean plants; same spray test, 2 = moderate tolerance, more than 50% of leaf area of top three trifoliates without chlorosis or bleaching)	number of plants with tolerance rating 3 (Soybean plants; same spray test, 3 = nearly perfect tolerance, less than 10% of leaf area showing chlorosis or very slight bleaching)	number of plants with tolerance rating 0 (Soybean plants; soybean expressing the clone, mesotrione (Callisto 4 SC) 316 grams AI per hectare (3× field rate), one week after spraying, 0 = completely bleached)	tolerance to tembotrione in the brown color assay (HPPD enzymes [2])
B1	57	44	16 milliOD units/minute and 19 milliOD units/minute	61% and 65%	42% and 65%					
B2	50	39	64 milliOD units/minute and 73 milliOD units/minute	34% and 54%	28% and 52%					
B3						18	23	12	5	most tolerant to tembotrione
